We go through 21 sequences from the supplement of paper PMC9233669.

The test system of one series is biotinyl-Val-oxazolone. Briefly: self-aminoacylation, catalytic enhancement (BVO) (fold over background); higher = more active; k-Seq, kA / k0A0; sequences stand for … in GGGAAUGGAUCCACAUCUACGAAUUC…UUCACUGCAGACUUGACGAAGCUG
In outline:
(§1)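 The uncatalyzed rate is the low-activity peak of a bimodal Gaussian fit, and catalytic enhancement is median kA divided by it. The kA values came from pseudo-first-order fits, with 1000 bootstraps, of per-sequence fraction reacted measured by streptavidin capture, triplicate qPCR and Illumina sequencing. Mutagenized RNA pools with a 21-nt variable region (0.43 μM) were reacted with each biotinyl-aminoacyl-oxazolone at 2–1250 μM in 50 μL HEPES/NaCl/KCl/MgCl2/CaCl2 buffer with 5% acetonitrile, pH 6.9–7.0, for 90 minutes at room temperature.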

For another series, the system named is biotinyl-Ile-oxazolone. Briefly: self-aminoacylation, catalytic enhancement (BIO) (fold over background); higher = more active; k-Seq, kA / k0A0; sequences stand for … in GGGAAUGGAUCCACAUCUACGAAUUC…UUCACUGCAGACUUGACGAAGCUG
In outline: as §1

The subject of the next series is biotinyl-Leu-oxazolone. As to the kind of experiment: self-aminoacylation, catalytic enhancement (BLO) (fold over background); higher = more active; k-Seq, kA / k0A0; sequences stand for … in GGGAAUGGAUCCACAUCUACGAAUUC…UUCACUGCAGACUUGACGAAGCUG
In outline: as §1

The subject of another series is biotinyl-Phe-oxazolone. As to the kind of experiment: self-aminoacylation, catalytic enhancement (BFO) (fold over background); higher = more active; k-Seq, kA / k0A0; sequences stand for … in GGGAAUGGAUCCACAUCUACGAAUUC…UUCACUGCAGACUUGACGAAGCUG
In short, it runs like this: as §1

The next series has as its system biotinyl-Trp-oxazolone. Briefly: self-aminoacylation, catalytic enhancement (BWO) (fold over background); higher = more active; k-Seq, kA / k0A0; sequences stand for … in GGGAAUGGAUCCACAUCUACGAAUUC…UUCACUGCAGACUUGACGAAGCUG
In outline:
as §1

In another series the test system is biotinyl-Met-oxazolone. Briefly: self-aminoacylation, catalytic enhancement (BMO) (fold over background); higher = more active; k-Seq, kA / k0A0; sequences stand for … in GGGAAUGGAUCCACAUCUACGAAUUC…UUCACUGCAGACUUGACGAAGCUG
In short, it runs like this: as §1

This sample holds only a part of the variants without activity.

Take “CUUCACUUAGGUCAUCGGGUG [Fam2.2 aminoacylation ribozyme variant]”: the self-aminoacylation in the series with biotinyl-Val-oxazolone was 2.8; with biotinyl-Ile-oxazolone it was 2.82; in the series with biotinyl-Leu-oxazolone, 5.55; in the series on biotinyl-Phe-oxazolone, 23.4; in the series with biotinyl-Trp-oxazolone, 5.12; in the series with biotinyl-Met-oxazolone, 4.3.

For the sequence “UUUCACCUAGGUCACCGGGUG [Fam2.2 aminoacylation ribozyme variant]”, the self-aminoacylation was found to be 3.87 in the series on biotinyl-Val-oxazolone; 3.8 in the series with biotinyl-Ile-oxazolone; 5.2 in the series on biotinyl-Leu-oxazolone; 26.7 in the series with biotinyl-Phe-oxazolone; 5.47 in the series with biotinyl-Trp-oxazolone; 3.77 with biotinyl-Met-oxazolone.

For “GCACACUUCAAGCACUCGGUC [Fam1B.1 aminoacylation ribozyme variant]”, the self-aminoacylation with biotinyl-Val-oxazolone amounted to 2.25; with biotinyl-Ile-oxazolone, 2.02; in the series with biotinyl-Leu-oxazolone, 1.94; with biotinyl-Phe-oxazolone, 4.05; in the series on biotinyl-Trp-oxazolone, 3.42; in the series on biotinyl-Met-oxazolone it was 2.44.

For the sequence “AUUACCCUGGCCAUCCAGUGA [Fam2.1 aminoacylation ribozyme variant]”, the self-aminoacylation in the series on biotinyl-Val-oxazolone came out at 4.01; in the series with biotinyl-Ile-oxazolone, 4.38; with biotinyl-Leu-oxazolone, 8.23; with biotinyl-Phe-oxazolone it was 35.9; in the series on biotinyl-Trp-oxazolone, 7.75; in the series with biotinyl-Met-oxazolone it was 7.34.

For “CAACACUGCAAGCAAUCGGUC [Fam1B.1 aminoacylation ribozyme variant]”, the self-aminoacylation worked out at 1.24 in the series on biotinyl-Val-oxazolone; 1.12 with biotinyl-Ile-oxazolone; 1.46 in the series with biotinyl-Leu-oxazolone; 0.892 in the series on biotinyl-Phe-oxazolone; 0.788 in the series on biotinyl-Trp-oxazolone; 1.3 in the series on biotinyl-Met-oxazolone.

In the case of “CUACCUCAAACGAUCGGUCUG [Fam1A.1 aminoacylation ribozyme variant]”, the self-aminoacylation amounted to 0.761 in the series with biotinyl-Val-oxazolone; 0.987 with biotinyl-Ile-oxazolone; 1.03 in the series on biotinyl-Leu-oxazolone; 1.42 in the series on biotinyl-Phe-oxazolone; 0.954 in the series with biotinyl-Trp-oxazolone; 1 in the series on biotinyl-Met-oxazolone.

For the sequence “CUACUUCAAGCAAUCGGUGUG [Fam1A.1 aminoacylation ribozyme variant]”, the self-aminoacylation with biotinyl-Val-oxazolone came to 1.24; in the series with biotinyl-Ile-oxazolone, 1.26; in the series on biotinyl-Leu-oxazolone it was 1.83; with biotinyl-Phe-oxazolone, 3.56; with biotinyl-Trp-oxazolone, 3.13; in the series with biotinyl-Met-oxazolone, 1.59.

With “CUACUGCUAACAAUCGGUCUG [Fam1A.1 aminoacylation ribozyme variant]”, the self-aminoacylation in the series with biotinyl-Val-oxazolone stood at 0.559; in the series on biotinyl-Ile-oxazolone, 0.538; in the series on biotinyl-Leu-oxazolone it was 0.597; in the series on biotinyl-Phe-oxazolone it was 0.437; in the series on biotinyl-Trp-oxazolone it was 0.418; in the series on biotinyl-Met-oxazolone, 0.491.

As for “AAUCGCCUAGGUCAUCGGGUG [Fam2.2 aminoacylation ribozyme variant]”, the self-aminoacylation in the series with biotinyl-Val-oxazolone came out at 8.02; in the series with biotinyl-Ile-oxazolone, 6.97; in the series on biotinyl-Leu-oxazolone it was 9.78; with biotinyl-Phe-oxazolone, 72.9; in the series with biotinyl-Trp-oxazolone it was 10; with biotinyl-Met-oxazolone it was 10.4.

For the sequence “AUUACCCUGGGCAUCAAGUGA [Fam2.1 aminoacylation ribozyme variant]”, the self-aminoacylation amounted to 1.37 in the series on biotinyl-Val-oxazolone; 1.16 in the series with biotinyl-Ile-oxazolone; 1.73 in the series on biotinyl-Leu-oxazolone; 2.16 in the series with biotinyl-Phe-oxazolone; 1.64 in the series with biotinyl-Trp-oxazolone; 1.76 in the series with biotinyl-Met-oxazolone.

In the case of “AUUCGCCUAGGUCAUCGGGCG [Fam2.2 aminoacylation ribozyme variant]”, the self-aminoacylation amounted to 3.59 with biotinyl-Val-oxazolone; 3.22 in the series with biotinyl-Ile-oxazolone; 5.67 with biotinyl-Leu-oxazolone; 2.39 in the series on biotinyl-Phe-oxazolone; 4.35 with biotinyl-Trp-oxazolone; 4.99 in the series on biotinyl-Met-oxazolone.

Take “CCACGCGUCAAGCAAUCGGUC [Fam1B.1 aminoacylation ribozyme variant]”: the self-aminoacylation in the series on biotinyl-Val-oxazolone came out at 1.2; in the series with biotinyl-Ile-oxazolone it was 0.827; in the series on biotinyl-Leu-oxazolone, 0.71; in the series with biotinyl-Phe-oxazolone, 0.748; in the series on biotinyl-Trp-oxazolone, 0.802; in the series with biotinyl-Met-oxazolone it was 0.841.

Turning to “AUUAUCCUAGGUCAUCGGGUG [Fam2.2 aminoacylation ribozyme variant]”, the self-aminoacylation in the series with biotinyl-Val-oxazolone amounted to 5.98; with biotinyl-Ile-oxazolone, 6.74; with biotinyl-Leu-oxazolone, 14.5; with biotinyl-Phe-oxazolone it was 54.6; in the series on biotinyl-Trp-oxazolone it was 9.09; in the series with biotinyl-Met-oxazolone it was 9.84.

For “AUUACUCUGGUCAUCGCGUGA [Fam2.1 aminoacylation ribozyme variant]”, the self-aminoacylation in the series on biotinyl-Val-oxazolone turned out to be 8.12; in the series with biotinyl-Ile-oxazolone, 8.13; with biotinyl-Leu-oxazolone, 17.7; with biotinyl-Phe-oxazolone, 117; in the series on biotinyl-Trp-oxazolone it was 18.3; in the series on biotinyl-Met-oxazolone, 16.4.

As for “AUGCACCUAGAUCAUCGGGUG [Fam2.2 aminoacylation ribozyme variant]”, the self-aminoacylation is 2.69 in the series with biotinyl-Val-oxazolone; 2.13 in the series on biotinyl-Ile-oxazolone; 2.64 in the series with biotinyl-Leu-oxazolone; 10.6 in the series on biotinyl-Phe-oxazolone; 3.8 with biotinyl-Trp-oxazolone; 2.41 in the series with biotinyl-Met-oxazolone.

Regarding “AGUACCCUGUUCAUCGAGUGA [Fam2.1 aminoacylation ribozyme variant]”, the self-aminoacylation in the series on biotinyl-Val-oxazolone turned out to be 2.45; in the series with biotinyl-Ile-oxazolone it was 2.36; in the series with biotinyl-Leu-oxazolone, 4.46; with biotinyl-Phe-oxazolone, 17.4; in the series with biotinyl-Trp-oxazolone, 4.52; in the series on biotinyl-Met-oxazolone, 4.14.

Regarding “GUUACCCUAGUCAUCGAGUGA [Fam2.1 aminoacylation ribozyme variant]”, the self-aminoacylation in the series on biotinyl-Val-oxazolone came to 3.33; in the series on biotinyl-Ile-oxazolone it was 3.81; with biotinyl-Leu-oxazolone, 6.93; in the series on biotinyl-Phe-oxazolone, 28.1; in the series on biotinyl-Trp-oxazolone, 7.77; in the series with biotinyl-Met-oxazolone it was 6.66.

For the sequence “AUUACCCUGGUCGUCGAGUCA [Fam2.1 aminoacylation ribozyme variant]”, the self-aminoacylation was determined as 1.05 with biotinyl-Val-oxazolone; 1.05 in the series on biotinyl-Ile-oxazolone; 0.956 in the series with biotinyl-Leu-oxazolone; 0.524 in the series with biotinyl-Phe-oxazolone; 0.444 in the series with biotinyl-Trp-oxazolone; 0.904 in the series with biotinyl-Met-oxazolone.

For “CCACUCUUCAAGCAAUCGAUC [Fam1B.1 aminoacylation ribozyme variant]”, the self-aminoacylation with biotinyl-Val-oxazolone was 0.735; in the series on biotinyl-Ile-oxazolone, 0.542; in the series with biotinyl-Leu-oxazolone, 0.522; with biotinyl-Phe-oxazolone, 1.28; in the series with biotinyl-Trp-oxazolone it was 0.516; with biotinyl-Met-oxazolone, 0.448.

For “AAGUUAGCUAAUAGUCGCAGG [Fam3.1 aminoacylation ribozyme variant]”, the self-aminoacylation in the series with biotinyl-Val-oxazolone came to 1.8; with biotinyl-Ile-oxazolone, 1.76; in the series on biotinyl-Leu-oxazolone, 1.62; in the series with biotinyl-Phe-oxazolone, 4.27; in the series on biotinyl-Trp-oxazolone, 1.77; in the series with biotinyl-Met-oxazolone, 1.6.

As to “AUUCCCCUGAUCAUCGAGUGA [Fam2.1 aminoacylation ribozyme variant]”, the self-aminoacylation with biotinyl-Val-oxazolone worked out at 4.2; with biotinyl-Ile-oxazolone it was 3.81; with biotinyl-Leu-oxazolone, 5.83; in the series with biotinyl-Phe-oxazolone, 8.85; in the series on biotinyl-Trp-oxazolone, 7.4; in the series on biotinyl-Met-oxazolone, 6.39.
